Source: PMC3331996 (Developmental Cell, 2012)

B1: Sec7f, Sec7(203-2009) purified fragment (domain or fragment, yeast, UniProt P11075 203-2009, looked up)
chain: PRSTHTRNISLSSNGSNTNSTIILVKTTLETILNDKDIKKNSNAQKAIERTLQKFKEFDPQTTNNPHYVDSILVFEALRASCRTKSSKVQSLALDCLSKLFSFRSLDETLLVNPPDSLASNDQRQDAADGITPPPKQKIIDAAIDTISDCFQGEGTDDRVELQIVRALSSCILEEDSSSLCHGASLLKAIRTIYNVFVFSLNPSNQGIAQATLTQIISSVYDKIDLKQSTSSAVSLSTKNHQQQSAIELSEASENAETPAPLTLENMDKLNDDEERLMDAQQPDSIAITNQDLAVKDAFLVFRVMAKICAKPLETELDMRSHAVRSKLLSLHIIYSIIKDHIDVFLSHNIFLPGKERVCFIDSIRQYLRLVLSRNAASPLAPVFEVTLEIMWLLIANLRADFVKEIPVFLTEIYFPISELTTSTSQQKRYFLSVIQRICNDPRTLVEFYLNYDCNPGMPNVMEITVDYLTRLALTRVEITQTQRSYYDEQISKSLSTYNFSQLPLLTSSNLSSSPDVGQVNLLFPLDFALKMVSLNCIVSVLRSLSSWAHKALNPNTHTANKVLLNTTSSARQESRSSLSNDVRSSIMTSNDDFKPTYEDEESRSLSSQNIDADDPTQFENLKLRKTALSECIAIFNNKPKKAIPVLIKKGFLKDDSPISIAKWLLETEGLDMAAVGDYLGEGDDKNIAIMHAFVDEFDFTGMSIVDALRSFLQSFRLPGEGQKIDRFMLKFAERFVDQNPGVFSKADTAYVLSYSLIMLNTDLHSSQIKNKMSLQEFLENNEGIDNGRDLPRDFLEGLFNEIANNEIKLISEQHQAMLSGDTNLVQQQQSAFNFFNSRDLTREAYNQVSKEISSKTELVFKNLNKNKGGPDVYYAASHVEHVKSIFETLWMSFLAALTPPFKDYDDIDTTNKCLEGLKISIKIASTFRINDARTSFVGALVQFCNLQNLEEIKVKNVNAMVILLEVALSEGNYLEGSWKDILLVVSQMERLQLISKGIDRDTVPDVAQARVANPRVSYESSRSNNTSFFDVWGKKATPTELAQEKHHNQTLSPEISKFISSSELVVLMDNIFTKSSELSGNAIVDFIKALTAVSLEEIESSENASTPRMFSLQKMVDVCYYNMDRIKLEWTPLWAVMGKAFNKIATNSNLAVVFFAIDSLRQLSMRFLDIEELSGFEFQHDFLKPFEYTVQNSGNTEVQEMIIECFRNFILTKSESIKSGWKPILESLQYTARSSTESIVLKTQLLVSNDIVTNHFENVFSQEDAFSELVGVFREITKNKRFQKLSLHALESLRKMTQNVADICFYNENKTEEERKHNDALLRGKDIFQDVWFPMLFCFNDTIMTAEDLEVRSRALNYMFDALVAYGGKFNDDFWEKICKKLLFPIFGVLSKHWEVNQFNSHDDLSVWLSTTLIQALRNLIALFTHYFESLNRMLDGFLGLLVSCICQENDTIARIGRSCLQQLILQNVSKFNEYHWNQIGDVFDKLFDLTTANELFDYDPLQQGRKSSVSHHQTTNDTSQHSDDDSNDRRENDSNISETVERAHQEESSEDVGGDMVETLNGQTKLNNGNSVPTVKDELNPKPASLSIPKKTKHMKRNESNEDIRRRINIKNSIVVKCVLQLLMIELLNELFENEDFAHCIPYKEAIRITRLLEKSYEFSRDFNEDYGLRTRLVEARVVDKIPNLLKQETSAAAVLLDIMFQLYLNDDEKKADLITRLITICIQVVEGYVSLDDRTMERSINAWRSVIVEILQGYYEFDDEDFRLYCPAMYALVIQILDKSVPTELRHAIKQFLSRVGELYLSTD
B2: Sec7ΔC+HDS1, Sec7 residues 203-1220, purified (domain or fragment, yeast, UniProt P11075 203-1220, looked up)
chain: PRSTHTRNISLSSNGSNTNSTIILVKTTLETILNDKDIKKNSNAQKAIERTLQKFKEFDPQTTNNPHYVDSILVFEALRASCRTKSSKVQSLALDCLSKLFSFRSLDETLLVNPPDSLASNDQRQDAADGITPPPKQKIIDAAIDTISDCFQGEGTDDRVELQIVRALSSCILEEDSSSLCHGASLLKAIRTIYNVFVFSLNPSNQGIAQATLTQIISSVYDKIDLKQSTSSAVSLSTKNHQQQSAIELSEASENAETPAPLTLENMDKLNDDEERLMDAQQPDSIAITNQDLAVKDAFLVFRVMAKICAKPLETELDMRSHAVRSKLLSLHIIYSIIKDHIDVFLSHNIFLPGKERVCFIDSIRQYLRLVLSRNAASPLAPVFEVTLEIMWLLIANLRADFVKEIPVFLTEIYFPISELTTSTSQQKRYFLSVIQRICNDPRTLVEFYLNYDCNPGMPNVMEITVDYLTRLALTRVEITQTQRSYYDEQISKSLSTYNFSQLPLLTSSNLSSSPDVGQVNLLFPLDFALKMVSLNCIVSVLRSLSSWAHKALNPNTHTANKVLLNTTSSARQESRSSLSNDVRSSIMTSNDDFKPTYEDEESRSLSSQNIDADDPTQFENLKLRKTALSECIAIFNNKPKKAIPVLIKKGFLKDDSPISIAKWLLETEGLDMAAVGDYLGEGDDKNIAIMHAFVDEFDFTGMSIVDALRSFLQSFRLPGEGQKIDRFMLKFAERFVDQNPGVFSKADTAYVLSYSLIMLNTDLHSSQIKNKMSLQEFLENNEGIDNGRDLPRDFLEGLFNEIANNEIKLISEQHQAMLSGDTNLVQQQQSAFNFFNSRDLTREAYNQVSKEISSKTELVFKNLNKNKGGPDVYYAASHVEHVKSIFETLWMSFLAALTPPFKDYDDIDTTNKCLEGLKISIKIASTFRINDARTSFVGALVQFCNLQNLEEIKVKNVNAMVILLEVALSEGNYLEGSWKDILLVVSQMERLQLISKGIDRDTVPDVAQARVANPRVS

Target: the molecule itself
Test: combined sedimentation/Stokes analysis

Row | Protein | stoichiometry N
1 | B1 | 2
2 | B2 | 2
